7 molecules from publication PMC3413111 can be followed below.

Data set [1] concerns the target T1, Bse634I wt (UniProt Q8RT53 1-293).
T1 sequence: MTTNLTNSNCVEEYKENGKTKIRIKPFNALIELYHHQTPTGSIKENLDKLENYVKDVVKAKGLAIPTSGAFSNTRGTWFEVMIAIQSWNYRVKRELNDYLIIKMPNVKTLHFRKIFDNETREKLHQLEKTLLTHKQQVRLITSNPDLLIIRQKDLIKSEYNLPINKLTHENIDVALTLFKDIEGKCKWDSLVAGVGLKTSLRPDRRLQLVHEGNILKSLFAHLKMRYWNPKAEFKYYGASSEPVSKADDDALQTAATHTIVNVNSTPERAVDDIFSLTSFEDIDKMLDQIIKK
Put plainly: EMSA.

The target in data set [2] is T2, Bse634I R226A (UniProt Q8RT53 1-293, R226A).
T2 sequence: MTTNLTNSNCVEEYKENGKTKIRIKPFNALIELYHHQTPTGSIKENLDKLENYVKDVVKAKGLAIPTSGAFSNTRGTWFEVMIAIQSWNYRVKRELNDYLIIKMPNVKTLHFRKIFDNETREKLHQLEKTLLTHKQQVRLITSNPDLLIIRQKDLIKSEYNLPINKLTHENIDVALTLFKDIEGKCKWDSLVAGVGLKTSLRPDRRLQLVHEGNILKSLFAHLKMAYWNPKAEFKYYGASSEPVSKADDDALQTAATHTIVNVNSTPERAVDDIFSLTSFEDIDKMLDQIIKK
Nature of the data set: crystal structure.

The target of data set [3] is T2, Bse634I R226A. Put plainly: crystal structure. The source holds these as a separate data set.
The target in data set [4] is T1, Bse634I wt. Nature of the data set: EMSA. The source holds these as a separate data set.
For data set [5], the target named is T2, Bse634I R226A. Nature of the data set: crystal structure. The source holds these as a separate data set.

Where two headings read alike, the source gives them in different places.

B1: AU (dsDNA)
DNA 1: CGCACGATCACCGGUGATGCACGC
DNA 2: GCGTGCATCACCGGUGATCGTGCG
modifications: dU for T at position 15 of each strand
For the molecule B1, in the data set with Bse634I wt [1], the binding result is “binds”.

B2: AT-1 (dsDNA)
DNA 1: TCGCACCGGTGCG
DNA 2: TCGCACCGGTGCG
For B2, the binding result with Bse634I R226A [2] was “binds”.

B3: AT-2 (dsDNA)
DNA 1: TTCGACCGGTCGA
DNA 2: TTCGACCGGTCGA
In the case of B3, the binding result with Bse634I R226A [3] was “binds”.

B4: IC (dsDNA)
DNA 1: CGCACGATCGCCGGCGATGCACGC
DNA 2: GCGTGCATCGCCGGCGATCGTGCG
modifications: inosine for G at position 10 of each strand (written as G)
On to B4, for which the binding result in the data set with Bse634I wt [1] was “binds”.

B5: AT (dsDNA)
DNA 1: CGCACGATCACCGGTGATGCACGC
DNA 2: GCGTGCATCACCGGTGATCGTGCG
Consider B5, for which the binding result with Bse634I wt [4] is “binds”.

B6: GC-1 (dsDNA)
DNA 1: TCGCGCCGGCGCG
DNA 2: TCGCGCCGGCGCG
Turning to B6, the binding result with Bse634I R226A [5] is “binds”.

B7: GC (dsDNA)
DNA 1: CGCACGATCGCCGGCGATGCACGC
DNA 2: GCGTGCATCGCCGGCGATCGTGCG
As for B7, in the data set with Bse634I wt [4], the binding result is recorded as “binds”.
